Results: patent US20240059799A1 (Pfizer, published 2024)
Positions count from the first letter of the chain named.

T1: recombinant human TL1A (human, UniProt O95150 71-251)
T1 construct: The ELISA method says only 'recombinant TL1A' coated on plates; homotrimeric cytokine; also called TNFSF15; recombinant TL1A
T1 chain: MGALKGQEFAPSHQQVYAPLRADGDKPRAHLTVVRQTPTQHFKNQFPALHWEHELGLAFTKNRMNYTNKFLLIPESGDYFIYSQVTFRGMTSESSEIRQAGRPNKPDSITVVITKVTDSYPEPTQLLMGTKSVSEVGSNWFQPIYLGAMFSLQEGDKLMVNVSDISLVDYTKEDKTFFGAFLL

B1: TL1A-0276 (antibody, human IgG1, kappa, V domains shown)
VH: QVQLVQSGAEVKKPGASVKVSCKASGYDFSYYGISWVRQAPGQGLEWMGWISTYNTGTHYAQKLQGRVTMTTDTSTSTAYMELRSLRSDDTAVYYCARESYYGSGAFRGGMDVWGQGTTVTVSS
VL: DIQMTQSPSSLSASVGDRVTITCRASQSVSSYLAWYQQKPGKAPKLLIYDASNRATGVPSRFSGSGSGTDFTLTISSLQPEDFATYYCQQRSNWPWTFGQGTKVEIKR
notes: human IgG1 effector-function-minimized / human kappa
B2: TL1A-0291 (antibody, human IgG1, kappa, V domains shown)
VH: B1 VH with S30T, I34V, F107H
VL: B1 VL
notes: as for B1
B3: TL1A-0289 (antibody, human IgG1, kappa, V domains shown)
VH: B1 VH with S30T, I34V, Q62P, K63S, F107H
VL: B1 VL
notes: as for B1
B4: TL1A-0308 (antibody, human IgG1, kappa, V domains shown)
VH: B1 VH with S30T, S35G, G57N, Q62P, K63S
VL: B1 VL
notes: as for B1
B5: TL1A-0287 (antibody, human IgG1, kappa, V domains shown)
VH: B1 VH with S30T, I34V, T56D, G57N, F107H
VL: B1 VL
notes: as for B1
B6: TL1A-0285 (antibody, human IgG1, kappa, V domains shown)
VH: B1 VH with S30T, I34V, T56D, G57N, Q62P, K63S, F107H
VL: B1 VL
notes: as for B1
B7: TL1A-0324 (antibody, human IgG1, kappa, V domains shown)
VH: B1 VH with S30T, G57N, Q62R, K63M, F107Y
VL: B1 VL
notes: as for B1
B8: TL1A-0292 (antibody, human IgG1, kappa, V domains shown)
VH: B1 VH with S30T, I34V, G57V, Q62P, K63S
VL: B1 VL
notes: as for B1
B9: TL1A-0282 (antibody, V domains shown)
VH: B1 VH with N55G, T56G, G57N, Q62P, K63S
VL: B1 VL
notes: IgG1 effector-minimized/kappa
B10: TL1A-0297 (antibody, V domains shown)
VH: B1 VH with S30T, I34V, N55G, T56G, G57N, Q62P, K63S, F107H
VL: B1 VL
notes: IgG1 effector-minimized/kappa
B11: TL1A-0309 (antibody, human IgG1, kappa, V domains shown)
VH: B1 VH with S30T, S35G, G57N, Q62P, K63S, F107H
VL: B1 VL
notes: as for B1
B12: TL1A-0300 (antibody, V domains shown)
VH: B1 VH with S30T, S35G, T56D, G57N
VL: B1 VL
notes: IgG1 effector-minimized/kappa
B13: TL1A-0298 (antibody, V domains shown)
VH: B1 VH with S30T, S35G, T56D, G57N, Q62P, K63S
VL: B1 VL
notes: IgG1 effector-minimized/kappa
B14: TL1A-0307 (antibody, human IgG1, kappa, V domains shown)
VH: B1 VH with S30T, S35G, G57V, Q62P, K63S, F107H
VL: B1 VL
notes: as for B1
B15: TL1A-0278 (antibody, human IgG1, kappa, V domains shown)
VH: B1 VH with G57V, Q62P, K63S
VL: B1 VL
notes: as for B1
B16: TL1A-0279 (antibody, human IgG1, kappa, V domains shown)
VH: B1 VH with G57V, Q62P, K63S, F107H
VL: B1 VL
notes: as for B1
B17: TL1A-0311 (antibody, V domains shown)
VH: B1 VH with S30T, S35G, N55G, T56G, G57N, Q62P, K63S, F107H
VL: B1 VL
notes: IgG1 effector-minimized/kappa
B18: TL1A-0306 (antibody, human IgG1, kappa, V domains shown)
VH: B1 VH with S30T, S35G, G57V, Q62P, K63S
VL: B1 VL
notes: as for B1
B19: TL1A-0288 (antibody, human IgG1, kappa, V domains shown)
VH: B1 VH with S30T, I34V, Q62P, K63S
VL: B1 VL
notes: as for B1
B20: TL1A-0295 (antibody, human IgG1, kappa, V domains shown)
VH: B1 VH with S30T, I34V, G57N, Q62P, K63S, F107H
VL: B1 VL
notes: as for B1
B21: TL1A-0293 (antibody, human IgG1, kappa, V domains shown)
VH: B1 VH with S30T, I34V, G57V, Q62P, K63S, F107H
VL: B1 VL
notes: as for B1
B22: TL1A-0280 (antibody, human IgG1, kappa, V domains shown)
VH: B1 VH with G57N, Q62P, K63S
VL: B1 VL
notes: as for B1
B23: TL1A-0310 (antibody, V domains shown)
VH: B1 VH with S30T, S35G, N55G, T56G, G57N, Q62P, K63S
VL: B1 VL
notes: IgG1 effector-minimized/kappa
B24: TL1A-0299 (antibody, V domains shown)
VH: B1 VH with S30T, S35G, T56D, G57N, Q62P, K63S, F107H
VL: B1 VL
notes: IgG1 effector-minimized/kappa
B25: TL1A-0281 (antibody, human IgG1, kappa, V domains shown)
VH: B1 VH with G57N, Q62P, K63S, F107H
VL: B1 VL
notes: as for B1
B26: TL1A-0294 (antibody, human IgG1, kappa, V domains shown)
VH: B1 VH with S30T, I34V, G57N, Q62P, K63S
VL: B1 VL
notes: as for B1
B27: TL1A-0284 (antibody, human IgG1, kappa, V domains shown)
VH: B1 VH with S30T, I34V, T56D, G57N, Q62P, K63S
VL: B1 VL
notes: as for B1
B28: TL1A-0301 (antibody, V domains shown)
VH: B1 VH with S30T, S35G, T56D, G57N, F107H
VL: B1 VL
notes: IgG1 effector-minimized/kappa
B29: TL1A-0304 (antibody, human IgG1, kappa, V domains shown)
VH: B1 VH with S30T, S35G
VL: B1 VL
notes: as for B1
B30: TL1A-0296 (antibody, V domains shown)
VH: B1 VH with S30T, I34V, N55G, T56G, G57N, Q62P, K63S
VL: B1 VL
notes: IgG1 effector-minimized/kappa
B31: TL1A-0290 (antibody, V domains shown)
VH: B1 VH with S30T, I34V
VL: B1 VL
notes: IgG1 effector-minimized/kappa
B32: TL1A-0283 (antibody, V domains shown)
VH: B1 VH with N55G, T56G, G57N, Q62P, K63S, F107H
VL: B1 VL
notes: IgG1 effector-minimized/kappa
B33: TL1A-0286 (antibody, human IgG1, kappa, V domains shown)
VH: B1 VH with S30T, I34V, T56D, G57N
VL: B1 VL
notes: as for B1
B34: TL1A-0302 (antibody, V domains shown)
VH: B1 VH with S30T, S35G, Q62P, K63S
VL: B1 VL
notes: IgG1 effector-minimized/kappa
B35: TL1A-0303 (antibody, human IgG1, kappa, V domains shown)
VH: B1 VH with S30T, S35G, Q62P, K63S, F107H
VL: B1 VL
notes: as for B1
B36: TL1A-0305 (antibody, human IgG1, kappa, V domains shown)
VH: B1 VH with S30T, S35G, F107H
VL: B1 VL
notes: as for B1
B37: TL1A-0277 (antibody, human IgG1, kappa, V domains shown)
VH: B1 VH with F107H
VL: B1 VL
notes: as for B1

Target: T1, recombinant human TL1A
Test: competition ELISA on coated recombinant TL1A; competitor biotinylated TL1A-0002
Experimental: For this competition ELISA assay procedure, 96-well high binding plates (Corning, product number 3590) were coated with 1 μg/mL recombinant TL1A in 100 μL/well in Phospate Buffered Saline (PBS) overnight at 4° C. Plates were then blocked in PBS+0.02% casein solution and washed with PBS+0.05% Tween-20 following standard ELISA protocol. […] Plates were washed with PBS+0.05% Tween-20 following standard ELISA protocol, and Streptavidin-HRP (Southern Biotech, product number 7100-05) diluted to 1:10,000 in assay buffer was added to plates and incubated for 25-30 minutes at room temperature. Next, the plates were washed with PBS+0.05% Tween-20 following standard ELISA protocol, and then TMB substrate (BioFX Laboratories, catalog number TMBW-0100-01) was added to plates. Reactions were stopped after approximately 5 minutes by adding 0.18 M ortho-phosphoric acid to each well and absorbance was read at 450 nm.

| Binder | Bioactivity relative to TL1A-0002 [fold] | IC50 [nM] |
| --- | --- | --- |
| B1 | 2.1 | 10.6 |
| B2 | 1.8 | 9 |
| B3 | 1.6 | 7.9 |
| B4 | 2.8 | 14.2 |
| B5 | 2 | 10.1 |
| B6 | 1.7 | 8.6 |
| B7 | 1.2 | 6.1 |
| B8 | 1.9 | 9.6 |
| B9 | 10.3 | 52.1 |
| B10 | 14.5 | 73.1 |
| B11 | 3.3 | 16.8 |
| B12 | 4.7 | 23.8 |
| B13 | 5 | 25.3 |
| B14 | 3.4 | 17.2 |
| B15 | 1.8 | 9.1 |
| B16 | 2.1 | 10.5 |
| B17 | 6 | 30.2 |
| B18 | 3.1 | 15.8 |
| B19 | 1.6 | 8 |

| Binder | Bioactivity relative to TL1A-0002 [fold] | IC50 [nM] |
| --- | --- | --- |
| B20 | 2.4 | 12.3 |
| B21 | 1.9 | 9.7 |
| B22 | 1.6 | 8.2 |
| B23 | 14.8 | 74.7 |
| B24 | 4.5 | 22.9 |
| B25 | 2.6 | 13.1 |
| B26 | 1.6 | 8 |
| B27 | 2 | 10.3 |
| B28 | 4.9 | 24.7 |
| B29 | 3 | 14.9 |
| B30 | 17.3 | 87.3 |
| B31 | 4.2 | 21 |
| B32 | 48.9 | 246 |
| B33 | 2.3 | 11.6 |
| B34 | 4 | 20.4 |
| B35 | 3 | 15 |
| B36 | 2.9 | 14.5 |
| B37 | 2 | 10.2 |
